Values of other authors, collected in publication PMC8215388.

Target: DnaK (Escherichia coli) (UniProt P0A6Y8)
Assay: analytical ultracentrifugation and cross-linking

Sequence of DnaK (P0A6Y8 2-638): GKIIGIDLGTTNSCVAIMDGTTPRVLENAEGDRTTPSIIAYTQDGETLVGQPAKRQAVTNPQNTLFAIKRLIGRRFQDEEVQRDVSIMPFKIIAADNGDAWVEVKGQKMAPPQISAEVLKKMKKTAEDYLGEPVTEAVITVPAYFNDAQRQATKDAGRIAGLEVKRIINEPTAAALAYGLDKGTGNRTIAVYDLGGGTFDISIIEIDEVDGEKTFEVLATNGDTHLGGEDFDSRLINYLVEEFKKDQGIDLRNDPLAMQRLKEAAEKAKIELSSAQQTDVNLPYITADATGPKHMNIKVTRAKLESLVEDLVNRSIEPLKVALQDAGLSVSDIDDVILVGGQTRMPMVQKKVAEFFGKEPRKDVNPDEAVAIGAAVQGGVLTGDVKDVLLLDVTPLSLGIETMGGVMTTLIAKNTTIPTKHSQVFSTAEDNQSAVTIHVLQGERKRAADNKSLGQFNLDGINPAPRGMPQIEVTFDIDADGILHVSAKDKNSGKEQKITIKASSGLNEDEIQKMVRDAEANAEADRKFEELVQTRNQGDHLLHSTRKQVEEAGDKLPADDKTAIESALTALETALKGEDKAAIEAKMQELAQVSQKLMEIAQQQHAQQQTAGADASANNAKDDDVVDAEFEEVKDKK

**Q.** With DnaK (from UniProt P0A6Y8) as the substance, how does the Kd read?
**A.** 200 µM
